The results in this text go back to paper PMC8056390.

The target in one experiment is GlnK with Y51F mutation (UniProt P0AC55). Put plainly: native MS.
Experiment [1] addresses AmtB with the C312T mutation (trimeric ammonia channel from Escherichia coli) (Escherichia coli) (UniProt P69681). Kind of experiment: native MS.

The substance “GlnK with Y51F mutation (from UniProt P0AC55 1-112) (natural protein)” yielded a stoichiometry N with GlnK with Y51F mutation of 3.
In experiment [1], “AmtB with the C312T mutation (trimeric ammonia channel from Escherichia coli) (from UniProt P69681 23-428) (natural protein)” returned a stoichiometry N of 3.
